Measured values taken from the RNAGym collection of RNA variant scans (doi:10.7554/elife.80360).

B1: Hairpin Ribozyme (parent)
chain: GUCCUCUUUCACGUGCGCGUGAAAGAGAGAAGUGAACCAGAGAAACACACGUUGUGGUAUAUUACCUGGUA

Variants of: B1
Experiment: self-cleavage, relative activity (ratio to wild type); higher = more cleavage; co-transcriptional

| Variant | self-cleavage |
| --- | --- |
| A35G U52A | 1.02 |
| G34C G54A | 1.2 |
| U33A U67A | 0.0848 |
| U33G U55A | 0.11 |
| U33G U55G | 0.0574 |
| G34C A49C | 0.186 |
| G34C A49U | 0.743 |
| A35C C37G | 0.282 |
| G34A G69A | 0.568 |
| G34A G69C | 0.402 |
| U33A U52A | 0.122 |
| U33A C66A | 0.0709 |
| U33A C66U | 0.151 |
| G34C A61G | 0.636 |
| G34A U53C | 1.13 |
| G34A U53A | 1.46 |
| G34U U52A | 1.5 |
| A35C A41U | 1.35 |
| U33C A47C | 0.106 |
| A35G G57U | 0.205 |
| A35G G57A | 0.222 |
| G34A C50G | 0.481 |
| U33C C48A | 0.0642 |
| U33C C48G | 0.227 |

| Variant | self-cleavage |
| --- | --- |
| A35C G51U | 1.24 |
| A35U A49G | 0.31 |
| G34U G42U | 1.17 |
| G34U A39G | 1.15 |
| G34U A39U | 1.14 |
| G34U U70G | 1.48 |
| A35U A64C | 0.143 |
| G34U G69C | 0.759 |
| G34U G69U | 1.1 |
| A35C G57U | 0.318 |
| A35C G57C | 0.134 |
| G34U U63C | 0.589 |
| G34U U63G | 0.261 |
| G34U U55C | 1.36 |
| A35C A59C | 0.258 |
| U33A C65A | 0.225 |
| U33A C65G | 0.225 |
| G34U A71C | 1.72 |
| U33C A43G | 0.196 |
| U33A U60G | 0.0384 |
| U33A U60C | 0.263 |
| U33G A61C | 0.041 |
| U33G U70G | 0.111 |
| A35C G68C | 0.145 |

| Variant | self-cleavage |
| --- | --- |
| A35C G68A | 0.279 |
| A35G C37G | 0.422 |
| A35G C37A | 0.416 |
| U33G C50A | 0.123 |
| U33G C50U | 0.14 |
| G34U A43G | 0.125 |
| U33C U53A | 0.198 |
| A35G U58G | 0.881 |
| U33G A64G | 0.108 |
| G34C G40C | 0.188 |
| G34U A41G | 0.857 |
| G34U A41C | 1.55 |
| G34A U62A | 0.315 |
| U33C U55G | 0.418 |
| U33C G51U | 0.144 |
| U33C G51A | 0.231 |
| U33C A64C | 0.102 |
| U33C A64G | 0.0772 |
| U33G A36U | 0.129 |
| U33C G68U | 0.258 |
| U33C G68A | 0.104 |
| A35G C50A | 0.326 |
| A35G C50G | 0.19 |
| U33G G57U | 0.2 |

| Variant | self-cleavage |
| --- | --- |
| A35C A61C | 0.151 |
| A35C A61G | 0.234 |
| A35C U67C | 0.217 |
| G34A A44U | 0.113 |
| A35G C66U | 0.553 |
| G34C A36U | 0.938 |
| G34C A36C | 1.25 |
| G34A G40U | 0.198 |
| G34A G40A | 0.407 |
| U33G A41G | 0.0864 |
| U33G C46G | 0.174 |
| U33C U67A | 0.119 |
| U33C U67C | 0.129 |
| A35G C38U | 0.371 |
| A35G C38G | 0.129 |
| U33C C66A | 0.0633 |
| G34A G68U | 0.325 |
| U33C A36U | 0.0847 |
| U33C A36C | 0.199 |
| U33C C38A | 0.087 |
| A35G U60A | 1.11 |
| U33G U67G | 0.0324 |
| U33A U55C | 0.149 |
| G34U A45G | 0.472 |

| Variant | self-cleavage |
| --- | --- |
| U33C G40A | 0.0908 |
| U33C G40U | 0.121 |
| U33G A39G | 0.119 |
| U33G A39U | 0.0926 |
| U33A G51C | 0.157 |
| G34C A41C | 1.47 |
| G34C A41G | 1.31 |
| G34A A59G | 0.2 |
| A35U A59C | 0.302 |
| A35U C38A | 0.135 |
| A35U C38U | 0.216 |
| G34A C65U | 0.673 |
| U33C A35G | 0.192 |
| U33C A35C | 0.12 |
| G34C C66G | 0.627 |
| G34C C66U | 1.29 |
| U33C U63C | 0.187 |
| A35C A49U | 0.119 |
| G34U C46G | 0.397 |
| G34U C46U | 0.102 |
| G34U A35U | 1.44 |
| G34A A61U | 0.218 |
| G34C U67C | 0.785 |
| G34A A41C | 0.826 |

| Variant | self-cleavage |
| --- | --- |
| A35G A41C | 1.31 |
| A35U G42U | 0.109 |
| G34C U55A | 1.16 |
| G34C U55G | 1.19 |
| A35U C46G | 0.146 |
| G34A C38U | 0.655 |
| U33C G34C | 1.28 |
| U33C G34A | 0.142 |
| U33C A41G | 0.193 |
| U33C G42A | 0.0915 |
| G34U A59C | 0.27 |
| G34A G51A | 1.28 |
| G34A G51C | 1.15 |
| G34C U60C | 1.41 |
| G34C U60A | 1.16 |
| G34C U60G | 0.828 |
| A35C A64C | 0.211 |
| A35C A64G | 0.513 |
| U33C U52A | 0.162 |
| U33C U52G | 0.1 |
| G34C G42A | 0.968 |
| G34C G42C | 0.907 |
| A35U C66G | 0.0865 |
| A35U C66U | 0.151 |

| Variant | self-cleavage |
| --- | --- |
| G34U A36U | 1.52 |
| G34A C37A | 0.534 |
| G34A G56A | 0.252 |
| A35G U55G | 0.283 |
| G34U C37G | 1.01 |
| A35G G56U | 0.154 |
| A35G G56A | 0.108 |
| G34U C48A | 0.497 |
| G34U C48G | 0.371 |
| U33G C37A | 0.109 |
| U33G C37U | 0.267 |
| U33G C37G | 0.064 |
| U33C A44C | 0.226 |
| G34U G68A | 1.17 |
| A35U A61C | 0.265 |
| A35U G57A | 0.193 |
| A35G U53C | 0.928 |
| A35G U53G | 0.955 |
| U33G U53A | 0.138 |
| A35G A61U | 0.245 |
| A35G A61C | 0.0992 |
| U33G A43C | 0.0935 |
| U33G A43U | 0.0768 |
